The text below walks through data of patent publication US20180037644A1 (Pfizer, published 2018).

Read-outs that look alike come from different tables or passages of the source.

For assay [1], the target named is T1, wild-type cynomolgus monkey IL-33 (cynomolgus monkey).
T1 construct: Used reduced (DTT-treated); His6 in the entry; also called cyno IL-33 (WT + DTT); pfe cyno WT IL-33
T1 chain: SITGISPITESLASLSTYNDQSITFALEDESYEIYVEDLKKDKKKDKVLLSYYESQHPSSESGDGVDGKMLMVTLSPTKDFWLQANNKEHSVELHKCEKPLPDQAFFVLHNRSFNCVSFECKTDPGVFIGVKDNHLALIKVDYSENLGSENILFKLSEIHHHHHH
As to the kind of experiment: SPR, Experiment 2; reference: human IL-33 (WT + DTT). On the procedure: (§1) Biacore kinetic assays were conducted at 37° C. at a collection rate of 1 Hz on a Biacore T200 instrument (GE Healthcare). Reduced and non-reduced wild-type human IL-33 and reduced wild-type cynomolgus monkey IL-33 were covalently coupled to a CM5 sensor chip (catalogue number BR100530, GE Healthcare) using an amine coupling kit (catalogue number BR100050, GE Healthcare) according to the manufacturer's protocol. Flow cell 1 was activated and blocked for use as a reference flow cell. […] The dilution and running buffer was HBS-EP+(10 mM HEPES pH 7.4, 0.15M NaCl, 3 mM EDTA, 0.05% P-20). Rate constants and affinities were determined by fitting the resulting sensorgram data to a 1:1 model in Biacore T200 Evaluation software version 1.0 (GE Healthcare). […] Kinetic properties of the bivalent IgG cannot be directly compared to those of monovalent Fab fragments and are not presented here.
On the technique in general: In SPR one partner is held on a chip, and binding of the other changes the refractive index at the surface.

The target in assay [2] is T2, human IL-33 WT, reduced with DTT (human, UniProt O95760 112-270).
T2 construct: Wild-type cysteines, FLAG tag in the entry; reduced with 3 mM DTT before use; also called huIL33 wt; hu IL-33 (WT + DTT)
T2 sequence: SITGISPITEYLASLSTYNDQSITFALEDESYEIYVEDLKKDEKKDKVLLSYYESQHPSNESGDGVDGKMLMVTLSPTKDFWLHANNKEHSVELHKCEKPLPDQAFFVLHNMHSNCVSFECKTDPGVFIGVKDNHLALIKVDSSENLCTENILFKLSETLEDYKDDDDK
As to the kind of experiment: SPR, IL-33 amine-coupled to CM5, Fab in solution, 37 C, Experiment 2. As to the method: as §1

The target in assay [3] is T1, wild-type cynomolgus monkey IL-33. The assay is described as above. As to the method:
as §1

Assay [4] has as its target T2, human IL-33 WT, reduced with DTT. As to the kind of experiment: SPR, IL-33 amine-coupled to CM5, rat Fab in solution, 37 C. On the procedure: Parallel studies were performed with non-reduced IL-33 and with IL-33 samples that had been reduced with 3 mM DTT for 3 hr. at room temperature prior to immobilization. […] Flow cell 1 was activated and blocked for use as a reference flow cell. […] Dissociation was monitored for 3600 seconds. Biacore kinetic assays were conducted at 37° C. at a collection rate of 1 Hz on a Biacore T200 instrument (GE Healthcare). Rate constants and affinities were determined by fitting the resulting sensorgram data to a 1:1 model in Biacore T200 Evaluation software version 1.0 (GE Healthcare).

Assay [5] addresses T3, human IL-33 (mm2) (human, UniProt O95760 112-270).
T3 chain: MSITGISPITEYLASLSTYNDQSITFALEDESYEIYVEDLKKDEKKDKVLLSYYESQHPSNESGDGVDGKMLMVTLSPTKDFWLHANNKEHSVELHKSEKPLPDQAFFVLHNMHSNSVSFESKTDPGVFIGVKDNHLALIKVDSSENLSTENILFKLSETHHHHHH
In words: cell-based or functional assay.

The target of assay [6] is T4, cynomolgus monkey IL-33 (cys mut) (cynomolgus monkey).
T4 chain: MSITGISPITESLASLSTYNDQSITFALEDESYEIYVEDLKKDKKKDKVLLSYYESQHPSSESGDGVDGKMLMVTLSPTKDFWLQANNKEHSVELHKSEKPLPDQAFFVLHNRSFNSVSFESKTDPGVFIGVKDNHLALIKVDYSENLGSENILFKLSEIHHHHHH
In words: cell-based or functional assay.

The target of assay [7] is T3, human IL-33 (mm2). In words: cell-based or functional assay.
The target of assay [8] is T5, human IL-33 WT (R&D) (human, UniProt O95760 112-270).
T5 sequence: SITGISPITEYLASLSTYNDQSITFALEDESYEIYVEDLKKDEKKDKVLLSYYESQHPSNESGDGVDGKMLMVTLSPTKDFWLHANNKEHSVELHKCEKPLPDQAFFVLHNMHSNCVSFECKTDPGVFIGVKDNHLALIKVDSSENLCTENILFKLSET
In words: cell-based or functional assay.

In assay [9] the target is T4, cynomolgus monkey IL-33 (cys mut). In words: cell-based or functional assay.
Assay [10] addresses T3, human IL-33 (mm2). In words: cell-based or functional assay.
Assay [11] deals with T5, human IL-33 WT (R&D). In words: cell-based or functional assay. The source holds these as a separate data set.
The target in assay [12] is T4, cynomolgus monkey IL-33 (cys mut). As to the kind of experiment: cell-based or functional assay.
Assay [13] deals with T3, human IL-33 (mm2). As to the kind of experiment: cell-based or functional assay.
Assay [14] concerns the target T3, human IL-33 (mm2). In words: cell-based or functional assay.
Assay [15] concerns the target T5, human IL-33 WT (R&D). In words: cell-based or functional assay. The source holds these as a separate data set.
In assay [16] the target is T3, human IL-33 (mm2). As to the kind of experiment: cell-based or functional assay.
Assay [17] has as its target T5, human IL-33 WT (R&D). In words: cell-based or functional assay. The source holds these as a separate data set.
In assay [18] the target is T4, cynomolgus monkey IL-33 (cys mut). As to the kind of experiment: cell-based or functional assay.
The target in assay [19] is T1, wild-type cynomolgus monkey IL-33. As to the kind of experiment: cell-based or functional assay.

B1: IL33-265 Fab (Fab, V domains shown)
VH: EVQLVESGGNLEQPGGSLRLSCTASGFTFSRSAMNWVRRAPGKGLEWVSGISGSGGRTYYADSVKGRFTISRDNSKNTLYLQMNSLSAEDTAAYYCAKDSYTTSWYGGMDVWGHGTTVTVSS
VL: DIQMTQSPSSVSASVGDRVTITCRASQGIFSWLAWYQQKPGKAPKLLIYAASSLQSGVPSRFSGSGSGTDFTLTISSLQPEDFAIYYCQQANSVPITFGQGTRLEIKR
notes: Fab fragment
Regarding B1, the “Ratio of cynomolgus monkey KD/human KD” value in assay [1] amounted to 57.8. In [2], the Kd was determined as 0.028 nM, the koff stood at 8.07e-05 s⁻¹ and the kon was 2.89e+06 M⁻¹ s⁻¹. In assay [3], this molecule yielded a Kd of 1.62 nM, a koff of 0.0038 s⁻¹ and a kon of 2.58e+06 M⁻¹ s⁻¹.

B2: rat 7E8 Fab (Fab, V domains shown)
VH: EVQLVETGGGLVQPGRSLKLSCKTSGFTFSSYWMYWIRQAPGKGLEWVSSITPNGGNTYYPDSVKGRFTISRDNAENTIYLQMSSLRSEDTATYFCAKGHYYYTSYSLGYWGQGSLVTVSS
VL: EIQMTQSPSVLSASVGDRVTLSCKASQNINKHLDWYQQKLGEAPKLLIYFTNNLQTGIPSRFSGSGSGTDCTLTINSLQPGDVATYFCFQYNNGWTFGGGTKLELD
notes: Fab of the parental rat antibody; also called parental rat Fab 7E8
Take B2: in [4], the Kd worked out at 0.0442 nM, the koff was determined as 0.000116 s⁻¹ and the kon is 2.55e+06 M⁻¹ s⁻¹.

B3: IL33-10 (antibody, human IgG1, kappa)
heavy: not shown
light: DIQMTQSPSSLSASVGDRVTITCKASQNINKHLDWYQQKPGKAPKLLIYFTNNLQTGVPSRFSGSGSGTDFTLTISSLQPEDFATYYCFQYNNGWTFGGGTKVEIKRTVAAPSVFIFPPSDEQLKSGTASVVCLLNNFYPREAKVQWKVDNALQSGNSQESVTEQDSKDSTYSLSSTLTLSKADYEKHKVYACEVTHQGLSSPVTKSFNRGEC
With B3, the figures for the “IC50, HEK293 ST2 NFkB” value (with human IL-33 (mm2) [5]; in assay [6]) were 0.017 nM and 0.132 nM, respectively. Besides, the “IC50, HEK293 ST2 NFkB mm2” value with human IL-33 (mm2) [7] was 0.031 nM. In the assay with human IL-33 (mm2) [7], the “IC50, whole blood IFNγ” value was determined as 0.121 nM. Moreover, the “IC50, HEK293 ST2 NFkB WT IL-33” value with human IL-33 WT (R&D) [8] came to 0.117 nM. In addition, in [9], the “IC50, HEK293 ST2 NFkB cyno IL-33” value worked out at 0.059 nM.

B4: IL33-167LS (antibody, human IgG1, kappa)
heavy: EVQLVESGGGLVQPGGSLRLSCAASGFTFSSYWMYWVRQAPGKGLEWVASITPNAGEDYYPDSVKGRFTISRDNAKNSLYLQMNSLRAEDTAVYYCARGHYYYTSYSLGYWGQGTLVTVSSASTKGPSVFPLAPSSKSTSGGTAALGCLVKDYFPEPVTVSWNSGALTSGVHTFPAVLQSSGLYSLSSVVTVPSSSLGTQTYICNVNHKPSNTKVDKKVEPKSCDKTHTCPPCPAPEAAGAPSVFLFPPKPKDTLMISRTPEVTCVVVDVSHEDPEVKFNWYVDGVEVHNAKTKPREEQYNSTYRVVSVLTVLHQDWLNGKEYKCKVSNKALPAPIEKTISKAKGQPREPQVYTLPPSREEMTKNQVSLTCLVKGFYPSDIAVEWESNGQPENNYKTTPPVLDSDGSFFLYSKLTVDKSRWQQGNVFSCSVLHEALHSHYTQKSLSLSPG
light: DIQMTQSPSSLSASVGDRVTITCKASQNINKHLDWYQQKPGKAPKLLIYFTNNLQTGVPSRFSGSGSGTDFTLTISSLQPEDFATYYCFQYNNGWTFGGGTKVEIKRTVAAPSVFIFPPSDEQLKSGTASVVCLLNNFYPREAKVQWKVDNALQSGNSQESVTEQDSKDSTYSLSSTLTLSKADYEKHKVYACEVTHQGLSSPVTKSFNRGEC
As to B4, the “IC50, HEK293 ST2 NFkB” value with human IL-33 (mm2) [10] was found to be 0.13 nM; with human IL-33 WT (R&D) [11] it was 0.685 nM; in [12], 0.162 nM; with human IL-33 (mm2) [16], 0.037 nM; in assay [18], 0.036 nM. For the same molecule, the “IC50, IFN-γ production in human PBMC” value with human IL-33 (mm2) [13] was 0.0011 nM. Moreover, the “IC50, human whole blood” value turned out to be 0.013 nM with human IL-33 (mm2) [14] and 0.451 nM with human IL-33 WT (R&D) [15]. Further, the results for the “IC50, HEK293 ST2 NFkB (DTT-pretreated IL-33)” value (in the assay with human IL-33 WT (R&D) [17]; in assay [19]) were 0.25 nM and 1.56 nM, respectively. The “Cynomolgus monkey:human IC50 ratio: cysteine mutant IL-33” value in [18] amounted to 1. Besides, the “Cynomolgus monkey:human IC50 ratio: wild-type IL-33” value in assay [19] stood at 6.2.

As usually defined, the Kd is the free concentration of one partner at which half of the binding sites on the other are occupied at equilibrium, for simple one-to-one binding. Broadly, the koff is the rate constant with which the complex falls apart. What is called kon is a measure of how fast the partners come together.
